Test results taken from patent US20220098265A1 (MEDIMMUNE LIMITED, priority 2012, published 2022).
Numbered stars: 1 amine (or outer) side, 2 acyl side, 3 side chain; on linkers, the order of the positions; unused ones are H or OH. Side chains are listed from the residue outwards. Ends that are not written are not given here. * marks the point of attachment. γGlu = O=C(O)[C@H](CCC(=O)[*:2])N[*:1]; Palmitoyl = CCCCCCCCCCCCCCCC(=O)*

Experiments:
Assay in all cases: cell-based or functional assay
human glucagon receptor = human glucagon receptor (human, UniProt P47871 26-477)
human GLP-1 receptor = human GLP-1 receptor (human, UniProt P43220 24-463)
[1] = biological target: T1, human glucose-dependent insulinotropic peptide (gastric inhibitory polypeptide) receptor (human, UniProt P48546 22-466)
T1 sequence (looked up): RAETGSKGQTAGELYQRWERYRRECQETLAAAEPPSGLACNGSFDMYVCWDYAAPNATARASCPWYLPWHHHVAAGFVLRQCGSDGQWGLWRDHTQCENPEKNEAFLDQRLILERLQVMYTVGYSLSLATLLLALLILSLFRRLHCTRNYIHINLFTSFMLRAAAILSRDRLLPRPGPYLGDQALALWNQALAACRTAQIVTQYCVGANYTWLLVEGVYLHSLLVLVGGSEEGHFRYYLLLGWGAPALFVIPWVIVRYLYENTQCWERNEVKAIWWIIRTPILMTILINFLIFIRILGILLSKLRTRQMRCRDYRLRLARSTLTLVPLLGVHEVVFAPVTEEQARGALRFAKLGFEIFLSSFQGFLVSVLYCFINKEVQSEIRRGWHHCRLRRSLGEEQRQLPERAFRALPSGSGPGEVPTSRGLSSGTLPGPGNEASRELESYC

Sequence of human glucagon receptor (P47871 26-477): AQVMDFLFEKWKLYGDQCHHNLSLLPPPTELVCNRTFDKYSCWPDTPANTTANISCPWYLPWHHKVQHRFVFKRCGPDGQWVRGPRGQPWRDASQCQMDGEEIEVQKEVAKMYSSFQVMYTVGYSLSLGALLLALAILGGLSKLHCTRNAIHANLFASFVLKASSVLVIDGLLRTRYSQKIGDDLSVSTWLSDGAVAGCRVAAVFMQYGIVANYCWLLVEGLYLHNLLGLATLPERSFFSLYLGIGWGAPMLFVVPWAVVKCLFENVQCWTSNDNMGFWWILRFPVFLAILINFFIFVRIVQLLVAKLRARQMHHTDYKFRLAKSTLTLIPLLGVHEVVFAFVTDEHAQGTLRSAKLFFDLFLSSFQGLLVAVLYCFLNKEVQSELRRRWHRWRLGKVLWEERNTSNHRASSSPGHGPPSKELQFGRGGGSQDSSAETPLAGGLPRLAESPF

B1: g701 (peptide)
peptide: HSQGTFTSDYSK([γGlu-Palmitoyl])YLDSRRAQDFVQWLERGG-NH2
modifications: N-terminus assumed
SMILES: CCCCCCCCCCCCCCCC(=O)N[C@@H](CCC(=O)NCCCC[C@H](NC(=O)[C@H](CO)NC(=O)[C@H](Cc1ccc(O)cc1)NC(=O)[C@H](CC(=O)O)NC(=O)[C@H](CO)NC(=O)[C@@H](NC(=O)[C@H](Cc1ccccc1)NC(=O)[C@@H](NC(=O)CNC(=O)[C@H](CCC(N)=O)NC(=O)[C@H](CO)NC(=O)[C@@H](N)Cc1c[nH]cn1)[C@@H](C)O)[C@@H](C)O)C(=O)N[C@@H](Cc1ccc(O)cc1)C(=O)N[C@@H](CC(C)C)C(=O)N[C@@H](CC(=O)O)C(=O)N[C@@H](CO)C(=O)N[C@@H](CCCNC(=N)N)C(=O)N[C@@H](CCCNC(=N)N)C(=O)N[C@@H](C)C(=O)N[C@@H](CCC(N)=O)C(=O)N[C@@H](CC(=O)O)C(=O)N[C@@H](Cc1ccccc1)C(=O)N[C@H](C(=O)N[C@@H](CCC(N)=O)C(=O)N[C@@H](Cc1c[nH]c2ccccc12)C(=O)N[C@@H](CC(C)C)C(=O)N[C@@H](CCC(=O)O)C(=O)N[C@@H](CCCNC(=N)N)C(=O)NCC(=O)NCC(N)=O)C(C)C)C(=O)O
cAMP EC50 (assay 1) (human glucagon receptor): 3.83 nM | cAMP EC50 (assay 1) (human GLP-1 receptor): 7.4 nM

B2: g840 (peptide)
peptide: HSQGTFTSDYSKYLDSRRAQDFVQWLEAGG-NH2
cAMP EC50 (assay 1) (human glucagon receptor): 0.0053 nM | cAMP EC50 (assay 1) (human GLP-1 receptor): 0.145 nM | cAMP EC50 (assay 1) [1]: 102 nM

B3: g747 (peptide)
peptide: HSQGTFTSDYSKYLDSRRAQDFVQWLEAGGK([γGlu-Palmitoyl])-NH2
modifications: N-terminus assumed
SMILES: CCCCCCCCCCCCCCCC(=O)N[C@@H](CCC(=O)NCCCC[C@H](NC(=O)CNC(=O)CNC(=O)[C@H](C)NC(=O)[C@H](CCC(=O)O)NC(=O)[C@H](CC(C)C)NC(=O)[C@H](Cc1c[nH]c2ccccc12)NC(=O)[C@H](CCC(N)=O)NC(=O)[C@@H](NC(=O)[C@H](Cc1ccccc1)NC(=O)[C@H](CC(=O)O)NC(=O)[C@H](CCC(N)=O)NC(=O)[C@H](C)NC(=O)[C@H](CCCNC(=N)N)NC(=O)[C@H](CCCNC(=N)N)NC(=O)[C@H](CO)NC(=O)[C@H](CC(=O)O)NC(=O)[C@H](CC(C)C)NC(=O)[C@H](Cc1ccc(O)cc1)NC(=O)[C@H](CCCCN)NC(=O)[C@H](CO)NC(=O)[C@H](Cc1ccc(O)cc1)NC(=O)[C@H](CC(=O)O)NC(=O)[C@H](CO)NC(=O)[C@@H](NC(=O)[C@H](Cc1ccccc1)NC(=O)[C@@H](NC(=O)CNC(=O)[C@H](CCC(N)=O)NC(=O)[C@H](CO)NC(=O)[C@@H](N)Cc1c[nH]cn1)[C@@H](C)O)[C@@H](C)O)C(C)C)C(N)=O)C(=O)O
cAMP EC50 (assay 1) (human glucagon receptor): 0.0942 nM | cAMP EC50 (assay 1) (human GLP-1 receptor): 3.16 nM | cAMP EC50 (assay 1) [1]: 1040 nM

B4: g316 (peptide)
peptide: HSQGTFTSDYSKYLDSRRAQDFVQWLVAGGSSGGSS-NH2
cAMP EC50 (assay 1) (human glucagon receptor): 0.0106 nM | cAMP EC50 (assay 1) (human GLP-1 receptor): 0.0314 nM | cAMP EC50 (assay 1) [1]: 3.65 nM

B5: g317 (peptide)
peptide: HSQGTFTSDYSKYLDSRRAQDFVQWLVAGGSSGGSSK-NH2
cAMP EC50 (assay 1) (human GLP-1 receptor): 2.63 nM

B6: g318 (peptide)
peptide: HSQGTFTSDYSKYLDSRRAQDFVQWLVAGGSSGGSSK(Palmitoyl)-NH2
modifications: N-terminus assumed
SMILES: CCCCCCCCCCCCCCCC(=O)NCCCC[C@H](NC(=O)[C@H](CO)NC(=O)[C@H](CO)NC(=O)CNC(=O)CNC(=O)[C@H](CO)NC(=O)[C@H](CO)NC(=O)CNC(=O)CNC(=O)[C@H](C)NC(=O)[C@@H](NC(=O)[C@H](CC(C)C)NC(=O)[C@H](Cc1c[nH]c2ccccc12)NC(=O)[C@H](CCC(N)=O)NC(=O)[C@@H](NC(=O)[C@H](Cc1ccccc1)NC(=O)[C@H](CC(=O)O)NC(=O)[C@H](CCC(N)=O)NC(=O)[C@H](C)NC(=O)[C@H](CCCNC(=N)N)NC(=O)[C@H](CCCNC(=N)N)NC(=O)[C@H](CO)NC(=O)[C@H](CC(=O)O)NC(=O)[C@H](CC(C)C)NC(=O)[C@H](Cc1ccc(O)cc1)NC(=O)[C@H](CCCCN)NC(=O)[C@H](CO)NC(=O)[C@H](Cc1ccc(O)cc1)NC(=O)[C@H](CC(=O)O)NC(=O)[C@H](CO)NC(=O)[C@@H](NC(=O)[C@H](Cc1ccccc1)NC(=O)[C@@H](NC(=O)CNC(=O)[C@H](CCC(N)=O)NC(=O)[C@H](CO)NC(=O)[C@@H](N)Cc1c[nH]cn1)[C@@H](C)O)[C@@H](C)O)C(C)C)C(C)C)C(N)=O
cAMP EC50 (assay 1) (human glucagon receptor): 9.04 nM | cAMP EC50 (assay 1) (human GLP-1 receptor): 1.14 nM

B7: g402 (peptide)
peptide: HSQGTFTSDYSKYLDSRRAQDFVQWLVAGGSGSGSG-NH2
cAMP EC50 (assay 1) (human glucagon receptor): 0.0596 nM | cAMP EC50 (assay 1) (human GLP-1 receptor): 0.0857 nM

B8: g319 (peptide)
peptide: HSQGTFTSDYSKYLDSRRAQDFVQWLVAGGPSSGAPPPSK-NH2
cAMP EC50 (assay 1) (human glucagon receptor): 0.0104 nM | cAMP EC50 (assay 1) (human GLP-1 receptor): 0.0361 nM

B9: g320 (peptide)
peptide: HSQGTFTSDYSKYLDSRRAQDFVQWLVAGGPSSGAPPPSK(Palmitoyl)-NH2
cAMP EC50 (assay 1) (human glucagon receptor): 0.0032 nM | cAMP EC50 (assay 1) (human GLP-1 receptor): 0.00938 nM | cAMP EC50 (assay 1) [1]: 1.01 nM

B10: g315 (peptide)
peptide: HSQGTFTSDYSKYLDSRRAQDFVQWLVAGGGGGG-NH2
cAMP EC50 (assay 1) (human glucagon receptor): 0.00504 nM | cAMP EC50 (assay 1) (human GLP-1 receptor): 0.0273 nM | cAMP EC50 (assay 1) [1]: 19.7 nM

B11: g325 (peptide)
peptide: HSQGTFTSDYSKYLDSRRAQDFVQWLVAGGGGGGK-NH2
cAMP EC50 (assay 1) (human glucagon receptor): 0.0103 nM | cAMP EC50 (assay 1) (human GLP-1 receptor): 0.0261 nM

B12: g326 (peptide)
peptide: HSQGTFTSDYSKYLDSRRAQDFVQWLVAGGGGGGK(Palmitoyl)-NH2
modifications: N-terminus assumed
SMILES: CCCCCCCCCCCCCCCC(=O)NCCCC[C@H](NC(=O)CNC(=O)CNC(=O)CNC(=O)CNC(=O)CNC(=O)CNC(=O)[C@H](C)NC(=O)[C@@H](NC(=O)[C@H](CC(C)C)NC(=O)[C@H](Cc1c[nH]c2ccccc12)NC(=O)[C@H](CCC(N)=O)NC(=O)[C@@H](NC(=O)[C@H](Cc1ccccc1)NC(=O)[C@H](CC(=O)O)NC(=O)[C@H](CCC(N)=O)NC(=O)[C@H](C)NC(=O)[C@H](CCCNC(=N)N)NC(=O)[C@H](CCCNC(=N)N)NC(=O)[C@H](CO)NC(=O)[C@H](CC(=O)O)NC(=O)[C@H](CC(C)C)NC(=O)[C@H](Cc1ccc(O)cc1)NC(=O)[C@H](CCCCN)NC(=O)[C@H](CO)NC(=O)[C@H](Cc1ccc(O)cc1)NC(=O)[C@H](CC(=O)O)NC(=O)[C@H](CO)NC(=O)[C@@H](NC(=O)[C@H](Cc1ccccc1)NC(=O)[C@@H](NC(=O)CNC(=O)[C@H](CCC(N)=O)NC(=O)[C@H](CO)NC(=O)[C@@H](N)Cc1c[nH]cn1)[C@@H](C)O)[C@@H](C)O)C(C)C)C(C)C)C(N)=O
cAMP EC50 (assay 1) (human glucagon receptor): 0.00282 nM | cAMP EC50 (assay 1) (human GLP-1 receptor): 0.0247 nM | cAMP EC50 (assay 1) [1]: 12.6 nM

B13: g702 (peptide)
peptide: HSQGTFTSDYSK([γGlu-Palmitoyl])YLDSRRAQDFVQWLVAGG-NH2
modifications: N-terminus assumed
SMILES: CCCCCCCCCCCCCCCC(=O)N[C@@H](CCC(=O)NCCCC[C@H](NC(=O)[C@H](CO)NC(=O)[C@H](Cc1ccc(O)cc1)NC(=O)[C@H](CC(=O)O)NC(=O)[C@H](CO)NC(=O)[C@@H](NC(=O)[C@H](Cc1ccccc1)NC(=O)[C@@H](NC(=O)CNC(=O)[C@H](CCC(N)=O)NC(=O)[C@H](CO)NC(=O)[C@@H](N)Cc1c[nH]cn1)[C@@H](C)O)[C@@H](C)O)C(=O)N[C@@H](Cc1ccc(O)cc1)C(=O)N[C@@H](CC(C)C)C(=O)N[C@@H](CC(=O)O)C(=O)N[C@@H](CO)C(=O)N[C@@H](CCCNC(=N)N)C(=O)N[C@@H](CCCNC(=N)N)C(=O)N[C@@H](C)C(=O)N[C@@H](CCC(N)=O)C(=O)N[C@@H](CC(=O)O)C(=O)N[C@@H](Cc1ccccc1)C(=O)N[C@H](C(=O)N[C@@H](CCC(N)=O)C(=O)N[C@@H](Cc1c[nH]c2ccccc12)C(=O)N[C@@H](CC(C)C)C(=O)N[C@H](C(=O)N[C@@H](C)C(=O)NCC(=O)NCC(N)=O)C(C)C)C(C)C)C(=O)O
cAMP EC50 (assay 1) (human glucagon receptor): 1.49 nM

B14: g728 (peptide)
peptide: HSQGTFTSDYSK([γGlu-Palmitoyl])YLDSRRAQDFVQWLVAGG-NH2
modifications: N-terminus assumed
SMILES: CCCCCCCCCCCCCCCC(=O)N[C@@H](CCC(=O)NCCCC[C@H](NC(=O)[C@H](CO)NC(=O)[C@H](Cc1ccc(O)cc1)NC(=O)[C@H](CC(=O)O)NC(=O)[C@H](CO)NC(=O)[C@@H](NC(=O)[C@H](Cc1ccccc1)NC(=O)[C@@H](NC(=O)CNC(=O)[C@H](CCC(N)=O)NC(=O)[C@H](CO)NC(=O)[C@@H](N)Cc1c[nH]cn1)[C@@H](C)O)[C@@H](C)O)C(=O)N[C@@H](Cc1ccc(O)cc1)C(=O)N[C@@H](CC(C)C)C(=O)N[C@@H](CC(=O)O)C(=O)N[C@@H](CO)C(=O)N[C@@H](CCCNC(=N)N)C(=O)N[C@@H](CCCNC(=N)N)C(=O)N[C@@H](C)C(=O)N[C@@H](CCC(N)=O)C(=O)N[C@@H](CC(=O)O)C(=O)N[C@@H](Cc1ccccc1)C(=O)N[C@H](C(=O)N[C@@H](CCC(N)=O)C(=O)N[C@@H](Cc1c[nH]c2ccccc12)C(=O)N[C@@H](CC(C)C)C(=O)N[C@H](C(=O)N[C@@H](C)C(=O)NCC(=O)NCC(N)=O)C(C)C)C(C)C)C(=O)O
cAMP EC50 (assay 1) (human glucagon receptor): 2.44 nM | cAMP EC50 (assay 1) [1]: 395 nM
